Laboratory results as given in paper PMC5226589.

What was measured:
[1] = target: telomere target construct (TCON): HALO-tagged fusion of EGFP, CIB1 and TRF1 (UniProt Q8GY61)
[2] = target: telomere target construct (TCON): HALO-tagged fusion of EGFP, CIB1 and TRF1 (UniProt Q8GY61); experiment: FRET or BRET; FLIM-FRET in live HeLa cells co-transfected with TCON and ECON; lifetime of EGFP (donor) with mCherry (acceptor); blue light 8 mW/cm^2 for 5 min (a similar response after 8 min at 1 mW/cm^2)

mean telomere length (TRF, Southern blot) of co-transfected HeLa cells exposed to blue light over three generations (5.3 Kb Gen-1 to 6.03 Kb Gen-3; without light 5.01 Kb to 4.6 Kb) [1]: 6.03 Kb
average fluorescence lifetime of EGFP (FRET donor on TCON) after 5 min of blue light [2]: 2.06 ns
Substance: epigenetic effector construct (ECON): HALO-tagged fusion of DNMT3A, CRY2PHR and mCherry (from UniProt Q9Y6K1 1-912)
